Test results published in the RNAGym collection of RNA variant scans (doi:10.1093/molbev/msab373).

B1: Azoarcus group I ribozyme (parent)
chain: GUGCCUUGCGCCGGGAAACCACGCAAGGGAUGGUGUCAAAUUCGGCGAAACCUAAGCGCCCGCCCGGGCGUAUGGCAACGCCGAGCCAAGCUUCGGCGCCUGCGCCGAUGAAGGUGUAGAGACUAGACGGCACCCACCUAAGGCAAACGCUAUGGUGAAGGCAUAGUCCAGGGAGUGGCGAAAGUCACACAAACCGG

Variants of: B1
Assay: reverse-splicing fitness (ratio to wild type); higher = more active; in vitro selection; Mg2+ level not given
Summary of the method: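 An in vitro group I ribozyme library with randomized positions was T7-transcribed and gel-purified. In triplicate, 10 pmol RNA in EPPS pH 7.5 was reacted with 50 pmoles of a 30-nt RNA substrate for 1 h at 37 °C across several added MgCl2 levels (1–48 mM), then stopped with EDTA. Products were reverse transcribed from a substrate-complementary primer, PCR-amplified and sequenced (HiSeq 4000). Fitness is a variant's read proportion after selection over that before, normalised to wild type.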

Variant | reverse-splicing fitness
A111U A120U A145C C150U C169U | 0.0159
A111U A120U A145C C150U C169U U176A | 0.0036
A111U A120U A145C C150U C169U U176C | 0.00285
A111U A120U A145C C150U C169U U176G | 0.0019
A111U A120U A145C C150U U176A | 0.0565
A111U A120U A145C C150U U176C | 0.0423
A111U A120U A145C C150U U176G | 0.0208
A111U A120U A145C C169A | 0.00435
A111U A120U A145C C169A U176A | 0.0026
A111U A120U A145C C169A U176C | 0.00249
A111U A120U A145C C169A U176G | 0.00152
A111U A120U A145C C169G | 0.0459
A111U A120U A145C C169G U176A | 0.00441
A111U A120U A145C C169G U176C | 0.00515
A111U A120U A145C C169G U176G | 0.00199
A111U A120U A145C C169U | 0.0629
A111U A120U A145C C169U U176A | 0.00945
A111U A120U A145C C169U U176C | 0.00989
A111U A120U A145C C169U U176G | 0.00245
A111U A120U A145C U176A | 0.194
A111U A120U A145C U176C | 0.168
A111U A120U A145C U176G | 0.0539
A111U A120U A145G | 0.593
A111U A120U A145G C150A | 0.0883

Variant | reverse-splicing fitness
A111U A120U A145G C150A C169A | 0.00554
A111U A120U A145G C150A C169A U176A | 0.0049
A111U A120U A145G C150A C169A U176C | 0.0038
A111U A120U A145G C150A C169A U176G | 0.00281
A111U A120U A145G C150A C169G | 0.00946
A111U A120U A145G C150A C169G U176A | 0.00807
A111U A120U A145G C150A C169G U176C | 0.00547
A111U A120U A145G C150A C169G U176G | 0.00267
A111U A120U A145G C150A C169U | 0.012
A111U A120U A145G C150A C169U U176A | 0.00532
A111U A120U A145G C150A C169U U176C | 0.00537
A111U A120U A145G C150A C169U U176G | 0.00312
A111U A120U A145G C150A U176A | 0.0364
A111U A120U A145G C150A U176C | 0.0415
A111U A120U A145G C150A U176G | 0.00868
A111U A120U A145G C150G | 0.0631
A111U A120U A145G C150G C169A | 0.00796
A111U A120U A145G C150G C169A U176A | 0.0087
A111U A120U A145G C150G C169A U176C | 0.00774
A111U A120U A145G C150G C169A U176G | 0.00452
A111U A120U A145G C150G C169G | 0.01
A111U A120U A145G C150G C169G U176A | 0.00683
A111U A120U A145G C150G C169G U176C | 0.00495
A111U A120U A145G C150G C169G U176G | 0.00343

Variant | reverse-splicing fitness
A111U A120U A145G C150G C169U | 0.0125
A111U A120U A145G C150G C169U U176A | 0.00644
A111U A120U A145G C150G C169U U176C | 0.00615
A111U A120U A145G C150G C169U U176G | 0.00383
A111U A120U A145G C150G U176A | 0.01
A111U A120U A145G C150G U176C | 0.0225
A111U A120U A145G C150G U176G | 0.00387
A111U A120U A145G C150U | 0.486
A111U A120U A145G C150U C169A | 0.00694
A111U A120U A145G C150U C169A U176A | 0.00497
A111U A120U A145G C150U C169A U176C | 0.00389
A111U A120U A145G C150U C169A U176G | 0.00237
A111U A120U A145G C150U C169G | 0.0377
A111U A120U A145G C150U C169G U176A | 0.00769
A111U A120U A145G C150U C169G U176C | 0.00802
A111U A120U A145G C150U C169G U176G | 0.0024
A111U A120U A145G C150U C169U | 0.0617
A111U A120U A145G C150U C169U U176A | 0.0115
A111U A120U A145G C150U C169U U176C | 0.0144
A111U A120U A145G C150U C169U U176G | 0.00291
A111U A120U A145G C150U U176A | 0.18
A111U A120U A145G C150U U176C | 0.206
A111U A120U A145G C150U U176G | 0.0253
A111U A120U A145G C169A | 0.00419

Variant | reverse-splicing fitness
A111U A120U A145G C169A U176A | 0.00212
A111U A120U A145G C169A U176C | 0.00376
A111U A120U A145G C169A U176G | 0.00247
A111U A120U A145G C169G | 0.0528
A111U A120U A145G C169G U176A | 0.00549
A111U A120U A145G C169G U176C | 0.00918
A111U A120U A145G C169G U176G | 0.00167
A111U A120U A145G C169U | 0.076
A111U A120U A145G C169U U176A | 0.0114
A111U A120U A145G C169U U176C | 0.0176
A111U A120U A145G C169U U176G | 0.00258
A111U A120U A145G U176A | 0.27
A111U A120U A145G U176C | 0.266
A111U A120U A145G U176G | 0.0546
A111U A120U A145U | 0.607
A111U A120U A145U C150A | 0.0527
A111U A120U A145U C150A C169A | 0.00249
A111U A120U A145U C150A C169A U176A | 0.00284
A111U A120U A145U C150A C169A U176C | 0.00214
A111U A120U A145U C150A C169A U176G | 0.00154
A111U A120U A145U C150A C169G | 0.0047
A111U A120U A145U C150A C169G U176A | 0.00269
A111U A120U A145U C150A C169G U176C | 0.00325
A111U A120U A145U C150A C169G U176G | 0.00225

Variant | reverse-splicing fitness
A111U A120U A145U C150A C169U | 0.00692
A111U A120U A145U C150A C169U U176A | 0.00294
A111U A120U A145U C150A C169U U176C | 0.00324
A111U A120U A145U C150A C169U U176G | 0.00245
A111U A120U A145U C150A U176A | 0.0229
A111U A120U A145U C150A U176C | 0.0269
A111U A120U A145U C150A U176G | 0.00946
A111U A120U A145U C150G | 0.0604
A111U A120U A145U C150G C169A | 0.00326
A111U A120U A145U C150G C169A U176A | 0.00319
A111U A120U A145U C150G C169A U176C | 0.00274
A111U A120U A145U C150G C169A U176G | 0.00255
A111U A120U A145U C150G C169G | 0.00597
A111U A120U A145U C150G C169G U176A | 0.00294
A111U A120U A145U C150G C169G U176C | 0.00228
A111U A120U A145U C150G C169G U176G | 0.00207
A111U A120U A145U C150G C169U | 0.00751
A111U A120U A145U C150G C169U U176A | 0.00295
A111U A120U A145U C150G C169U U176C | 0.0031
A111U A120U A145U C150G C169U U176G | 0.00222
A111U A120U A145U C150G U176A | 0.0111
A111U A120U A145U C150G U176C | 0.0208
A111U A120U A145U C150G U176G | 0.0043
A111U A120U A145U C150U | 0.405

Variant | reverse-splicing fitness
A111U A120U A145U C150U C169A | 0.00404
A111U A120U A145U C150U C169A U176A | 0.00308
A111U A120U A145U C150U C169A U176C | 0.00309
A111U A120U A145U C150U C169A U176G | 0.00264
A111U A120U A145U C150U C169G | 0.0304
A111U A120U A145U C150U C169G U176A | 0.00542
A111U A120U A145U C150U C169G U176C | 0.00596
A111U A120U A145U C150U C169G U176G | 0.00227
A111U A120U A145U C150U C169U | 0.0433
A111U A120U A145U C150U C169U U176A | 0.00718
A111U A120U A145U C150U C169U U176C | 0.00988
A111U A120U A145U C150U C169U U176G | 0.00253
A111U A120U A145U C150U U176A | 0.16
A111U A120U A145U C150U U176C | 0.174
A111U A120U A145U C150U U176G | 0.0292
A111U A120U A145U C169A | 0.00401
A111U A120U A145U C169A U176A | 0.00253
A111U A120U A145U C169A U176C | 0.00283
A111U A120U A145U C169A U176G | 0.00231
A111U A120U A145U C169G | 0.0519
A111U A120U A145U C169G U176A | 0.00482
A111U A120U A145U C169G U176C | 0.00666
A111U A120U A145U C169G U176G | 0.00201
A111U A120U A145U C169U | 0.0617

Variant | reverse-splicing fitness
A111U A120U A145U C169U U176A | 0.0087
A111U A120U A145U C169U U176C | 0.0174
A111U A120U A145U C169U U176G | 0.00258
A111U A120U A145U U176A | 0.241
A111U A120U A145U U176C | 0.281
A111U A120U A145U U176G | 0.0645
A111U A120U C150A | 0.0595
A111U A120U C150A C169A | 0.00436
A111U A120U C150A C169A U176A | 0.00475
A111U A120U C150A C169A U176C | 0.00348
A111U A120U C150A C169A U176G | 0.00251
A111U A120U C150A C169G | 0.00631
A111U A120U C150A C169G U176A | 0.00698
A111U A120U C150A C169G U176C | 0.00445
A111U A120U C150A C169G U176G | 0.00254
A111U A120U C150A C169U | 0.00846
A111U A120U C150A C169U U176A | 0.00638
A111U A120U C150A C169U U176C | 0.0045
A111U A120U C150A C169U U176G | 0.00212
A111U A120U C150A U176A | 0.0294
A111U A120U C150A U176C | 0.0318
A111U A120U C150A U176G | 0.0103
A111U A120U C150G | 0.045
